In test [1] the target is T1, human CD96v2 expressed on cells (CHO cells; transiently transfected HEK cells) (human, UniProt P40200-2 22-569).
T1 construct: whole, on cells; the cell is named under assay; also called CHO-huCD96; hCD96v2
T1 sequence (looked up): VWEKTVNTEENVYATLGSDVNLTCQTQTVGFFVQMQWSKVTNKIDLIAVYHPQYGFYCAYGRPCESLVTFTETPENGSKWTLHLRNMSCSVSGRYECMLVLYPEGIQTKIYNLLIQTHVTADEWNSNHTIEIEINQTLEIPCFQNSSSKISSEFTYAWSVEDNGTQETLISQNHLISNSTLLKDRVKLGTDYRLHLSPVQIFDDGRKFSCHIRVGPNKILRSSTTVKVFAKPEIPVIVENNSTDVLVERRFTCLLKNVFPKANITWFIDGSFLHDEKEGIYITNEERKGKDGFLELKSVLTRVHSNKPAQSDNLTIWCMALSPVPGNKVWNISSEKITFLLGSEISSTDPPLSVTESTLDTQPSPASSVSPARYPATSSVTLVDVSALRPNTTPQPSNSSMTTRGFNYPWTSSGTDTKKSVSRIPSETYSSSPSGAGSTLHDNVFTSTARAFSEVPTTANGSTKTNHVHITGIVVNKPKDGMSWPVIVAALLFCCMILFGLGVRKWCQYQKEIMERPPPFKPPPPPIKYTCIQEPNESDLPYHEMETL
The test can be described thus: flow cytometry on transiently transfected HEK cells (Human CD96v2).

The target in test [2] is T1, human CD96v2 expressed on cells (CHO …). The test can be described thus: flow cytometry on CHO cells expressing human CD96v2. In general terms: Flow cytometry measures light scatter and fluorescence of single cells or particles in a stream.
The target in test [3] is T2, blood derived cynomolgus monkey CD96v2 on transiently transfected HEK cells (cynomolgus monkey).
T2 construct: also called Blood derived Cyno CD96v2
The test can be described thus: flow cytometry on transiently transfected HEK cells (Cyno blood derived CD96v2).

Test [4] deals with T3, human CD96v1 on transiently transfected HEK cells (human, UniProt P40200 22-585).
T3 construct: whole, on cells
T3 sequence (looked up): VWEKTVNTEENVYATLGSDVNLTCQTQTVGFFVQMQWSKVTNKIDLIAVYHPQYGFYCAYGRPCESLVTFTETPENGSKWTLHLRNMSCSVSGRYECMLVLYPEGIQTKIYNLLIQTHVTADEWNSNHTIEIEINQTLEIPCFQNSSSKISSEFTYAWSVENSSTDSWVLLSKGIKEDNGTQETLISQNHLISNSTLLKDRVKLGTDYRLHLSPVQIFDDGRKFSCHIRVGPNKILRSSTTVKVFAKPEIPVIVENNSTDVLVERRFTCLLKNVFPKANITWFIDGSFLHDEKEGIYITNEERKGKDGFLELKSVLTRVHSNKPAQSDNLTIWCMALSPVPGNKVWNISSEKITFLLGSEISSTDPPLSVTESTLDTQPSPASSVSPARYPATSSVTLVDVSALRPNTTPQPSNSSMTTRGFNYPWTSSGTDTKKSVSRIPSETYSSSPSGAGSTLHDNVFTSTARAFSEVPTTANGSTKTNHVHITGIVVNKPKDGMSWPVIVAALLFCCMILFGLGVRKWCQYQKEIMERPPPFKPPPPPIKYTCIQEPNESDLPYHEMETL
The test can be described thus: flow cytometry on transiently transfected HEK cells; geometric mean, n = 3.

Test [5] addresses T4, cynomolgus monkey CD96v2 expressed on cells (CHO cells; transiently transfected HEK cells) (cynomolgus monkey, UniProt A0A2K5TWV6 22-569).
T4 construct: the cell is named under assay; also called CHO-cyCD96; Cyno CD96v2
T4 sequence: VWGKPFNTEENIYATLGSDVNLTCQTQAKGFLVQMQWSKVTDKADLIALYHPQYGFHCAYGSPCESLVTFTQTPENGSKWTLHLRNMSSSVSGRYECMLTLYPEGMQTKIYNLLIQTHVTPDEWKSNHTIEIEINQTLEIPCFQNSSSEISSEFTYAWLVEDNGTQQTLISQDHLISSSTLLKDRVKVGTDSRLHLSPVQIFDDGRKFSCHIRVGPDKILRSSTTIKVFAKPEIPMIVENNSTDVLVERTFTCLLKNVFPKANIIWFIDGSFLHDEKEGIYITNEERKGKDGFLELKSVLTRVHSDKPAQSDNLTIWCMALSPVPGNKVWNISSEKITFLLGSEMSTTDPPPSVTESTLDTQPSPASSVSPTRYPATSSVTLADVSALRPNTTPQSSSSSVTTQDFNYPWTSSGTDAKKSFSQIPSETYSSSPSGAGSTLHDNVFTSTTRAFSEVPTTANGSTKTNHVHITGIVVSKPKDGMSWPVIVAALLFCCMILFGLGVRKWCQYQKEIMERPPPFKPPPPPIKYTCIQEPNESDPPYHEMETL
The test is described as above.

The target in test [6] is T1, human CD96v2 expressed on cells (CHO …). The test is described as above.
For test [7], the target named is T2, blood derived cynomolgus monkey CD96v2 …. Described as above.
Test [8] concerns the target T5, cynomolgus monkey CD96v1 on transiently transfected HEK cells (cynomolgus monkey).
T5 construct: whole, on cells; also called Cyno CD96v1
The test is described as above.

The target of test [9] is T6, cynomolgus monkey CD96, native, on primary cynomolgus monkey T cells (cynomolgus monkey, UniProt A0A2K5TWV6 22-569).
T6 construct: whole, on cells
T6 sequence: T4 sequence
The test can be described thus: flow cytometry on activated cynomolgus monkey T cells, donor 2.

B1: 42Y073-86F08-66 (antibody)
heavy: not shown
light: DIQLTQSPSSLSASVGDRVTITCRASQSISSYLNWYQQKPGKAPKLLIYAASSLQSGVPSRFSGSGSGTDFTLTISSLQPEDFATYYCQQVLHTITFGGGTKVEIKRTVAAPSVFIFPPSDEQLKSGTASVVCLLNNFYPREAKVQWKVDNALQSGNSQESVTEQDSKDSTYSLSSTLTLSKADYEKHKVYACEVTHQGLSSPVTKSFNRGEC
notes: also called GSK 6097608; GSK6097608
A word on the EC50 (read off the curve): it is the midpoint of the concentration-response curve. A word on the EC50: it is the concentration needed to bring the measured effect to its halfway point. As to B1, the “EC50 (read off the curve)” value was roughly 6 nM in test [1], roughly 7 nM in [3] and roughly 0.1 nM in [9]. Besides, the EC50 in test [2] was 0.05 nM; in test [4], 5.28 nM; in test [5], 7.88 nM; in test [6] it was 6.44 nM; in test [7], 7.34 nM; in test [8] it was 9.17 nM.

These data come from patent US12528864 (GlaxoSmithKline, dated 2026).
